US20190211098A1 (Genentech, published 2019)

B2: NPDC1-His (ligand)
chain: GHPDVAACPGSLDCALKRRARCPPGAHACGPCLQPFQEDQQGLCVPRMRRPPGGGRPQPRLEDEIDFLAQELARKESGHSTPPLPKDRQRLPEPATLGFSARGQGLELGLPSTPGTPTPTPHTSLGSPVSSDPVHMSPLEPRGGQGD
notes: not shown: His tag
B4: PILRA R78 variant extracellular domain fused to murine IgG2a Fc (Fc fusion)
chain: QPSGSTGSGPSYLYGVTQPKHLSASMGGSVEIPFSFYYPWELATAPDVRISWRRGHFHRQSFYSTRPPSIHKDYVNRLFLNWTEGQKSGFLRISNLQKQDQSVYFCRVELDTRSSGRQQWQSIEGTKLSITQAVTTTTQRPSSMTTTWRLSSTTTTTGLRVTQGKRRSDSWHISLET
notes: also called PILRA-mFc R78; PILRA-Fc R78; not shown: Fc region of murine IgG2a, C-terminal tag
B5: NPDC1 extracellular domain (1-190 aa) fused to murine IgG2a Fc (Fc fusion)
chain: GHPDVAACPGSLDCALKRRARCPPGAHACGPCLQPFQEDQQGLCVPRMRRPPGGGRPQPRLEDEIDFLAQELARKESGHSTPPLPKDRQRLPEPATLGFSARGQGLELGLPSTPGTPTPTPHTSLGSPVSSDPVHMSPLEPRGGQGDGLALVLILA
notes: also called NPDC1-mFc; NPDC1-mFC; not shown: Fc region of murine IgG2a, C-terminal tag

Legend:
[1] = target: T1, Biotinylated mouse PILRA ECD (mouse, UniProt Q2YFS3 32-198, biotinylated (sites not given)); experiment: competitive ELISA: biotinylated mouse PILRA ECD on Neutravidin plate, antibody titrated together with a fixed amount of mouse CD99-Fc, bound ligand-Fc detected with anti-human IgG-Fc-HRP
T1 construct: Captured on Neutravidin plates; also called mPILRA; recombinant PILRA ECD

[2] = target: T1, Biotinylated mouse PILRA ECD; experiment: competitive ELISA: biotinylated mouse PILRA ECD on Neutravidin plate, antibody titrated together with a fixed amount of mouse C12orf53-Fc, bound ligand-Fc detected with anti-human IgG-Fc-HRP
Procedure: The PILRA ECD-based competitive ELISA was performed as follows. […] Plates were blocked with 0.5% bovine serum albumin, 15 ppm Proclin 300 (Supelco, Bellefonte, Pa.) in PBS (80 μl/well) at room temperature for 1 h and washed. Biotinylated mouse PILRA ECD at 0.25 μg/ml (Genentech, Inc.) in 0.5% bovine serum albumin, 0.05% polysorbate 20, 15 ppm Proclin 300 in PBS, pH 7.4 (assay buffer) was added to the plates. After 1.5 hrs incubation, plates were washed. […] The mixture of the serially diluted antibody and ligand-Fc was added to the plates at 25 μl/well. After a 2 hrs incubation, plates were washed. […] After a 1 hr incubation, plates were washed and the substrate 3,3′,5,5′-tetramethyl benzidine (Moss Inc., TMBE-1000) was added. The reaction was stopped by adding 1 M phosphoric acid. The absorbance was read at 450 nm using a microplate reader (Multiskan Ascent, Thermo Scientific, Waltham, Mass.). The titration curves were plotted using KaleidaGraph (Synerg Software, Reading, Pa.).

[3] = target: B4; experiment: SPR, NPDC1-His binding to PILRA variant
NPDC1-His [4] = target: B2; experiment: SPR, NPDC1-His binding to PILRA variant
[5] = target: T2, HSV-1 glycoprotein B, full length, expressed on transfected 293T cells (human herpes simplex virus type-1, UniProt P06437 31-904); experiment: flow cytometry: soluble PILRA-mFc variant (50 ug/ml) on HSV-1 gB-transfected 293T cells, FITC anti-mouse IgG2a; MFI as % of G78 (= 100 %)
T2 construct: Construct cloned from EF157316 (strain KOSc); also called HSV-1 gB; human herpesvirus 1 strain KOSc glycoprotein B (EF157316)

[6] = target: T3, Full length myc-DDK tagged PIANP, expressed on transfected 293T cells (human, UniProt Q8IYJ0 32-282); experiment: flow cytometry: soluble PILRA-mFc variant (50 ug/ml) on myc-PIANP-transfected 293T cells, FITC anti-mouse IgG2a; MFI as % of G78 (= 100 %)
T3 construct: Bought construct (Origene Cat. No. RC207868); also called myc-PIANP; C12orf53 (human); not shown: myc-DDK tag of the Origene construct RC207868
T3 sequence: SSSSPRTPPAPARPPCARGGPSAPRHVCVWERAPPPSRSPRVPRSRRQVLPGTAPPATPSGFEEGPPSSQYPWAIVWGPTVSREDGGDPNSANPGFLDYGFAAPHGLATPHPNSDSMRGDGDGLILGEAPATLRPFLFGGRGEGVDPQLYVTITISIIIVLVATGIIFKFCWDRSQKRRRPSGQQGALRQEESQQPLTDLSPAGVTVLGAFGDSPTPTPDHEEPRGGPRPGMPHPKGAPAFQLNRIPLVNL

NPDC1-His [7] = target: B2; experiment: SPR, NPDC1-His binding to PILRA variant; remark: listed apart in the source
[8] = target: T4, R78 variant of PILRA (AD-protective), full-length, on cells (human, UniProt Q9UKJ1 20-303); experiment: flow cytometry, soluble NPDC1-mIgG2a on PILRA-variant-transfected 293T cells
T4 construct: also called PILRA R78; rs1859788 variant
Procedure: (§1) Relative PILRA-ligand binding to PILRA variant transfected cells was performed as follows. […] Double positive cells were gated on the G78 sample and then the gates were overlaid on subsequent samples to maintain the same cell population throughout the experiment.

[9] = target: T5, A140 variant of PILRA (Q140A), full-length, expressed on transfected 293T cells (human, UniProt Q9UKJ1 20-303); experiment: as above
T5 construct: Point mutation put into the full-length G78 construct by site-directed mutagenesis
Procedure: as §1

[10] = target: T6, A141 variant of PILRA (S141A), full-length, expressed on transfected 293T cells (human, UniProt Q9UKJ1 20-303); experiment: as above
T6 construct: Point mutation put into the full-length G78 construct by site-directed mutagenesis
Procedure: as §1

[11] = target: T7, A72 variant of PILRA, full-length, expressed on transfected 293T cells (human, UniProt Q9UKJ1 20-303); experiment: flow cytometry, soluble NPDC1-mFc 50 ug/ml on PILRA-variant-transfected 293T cells
T7 construct: Point mutation put into the full-length G78 construct by site-directed mutagenesis; also called R72 substituted to alanine
Procedure: as §1
(§2) Cells were washed and NPDC1 and PILRA cell surface staining was assessed by flow cytometry using anti-mIgG2a-FITC and anti-PILRA antibodies, respectively. […] Binding of the G78 variant of PILRA to NPDC1 was considered 100%.

[12] = target: T8, A76 variant of PILRA, full-length, expressed on transfected 293T cells (human, UniProt Q9UKJ1 20-303); experiment: as above
T8 construct: Point mutation put into the full-length G78 construct by site-directed mutagenesis; also called F76 substituted to alanine
Procedure: as §1, §2

[13] = target: T4, R78 variant of PILRA (AD-protective), …; experiment: as above
Procedure: as §1, §2

[14] = target: T9, G80 variant of PILRA, full-length, expressed on transfected 293T cells (human, UniProt Q9UKJ1 20-303); experiment: as above
T9 construct: Point mutation put into the full-length G78 construct by site-directed mutagenesis; also called S80 substituted to glycine
Procedure: as §1, §2

Murine PILRA-His = target: T10, Murine PILRA-His (mouse, UniProt Q2YFS3 32-198); experiment: array SPR imaging, sandwich format: mAb 2 on the chip, murine PILRA-His 100 nM, then Fc-tagged ligand at 10 ug/ml; response normalised to the PILRA level
T10 construct: not shown: His tag

[15] = target: T11, Mouse PILRA extracellular domain fused to human CD3 zeta chain transmembrane and intracellular domains, on … (mouse; human); experiment: cell-based competitive ELISA: 293-PILRA stable cells, antibody titrated together with a fixed amount of mouse CD99-Fc
T11 construct: domain: transmembrane and intracellular domains; also called cell surface PILRA

[16] = target: T1, Biotinylated mouse PILRA ECD; experiment: competitive ELISA: biotinylated mouse PILRA ECD on Neutravidin plate, antibody titrated together with a fixed amount of mouse CD99-Fc
[17] = target: B5; experiment: SPR (ProteOn XPR36): PILRA-mFc A140 amine-coupled to a GLC chip, 100 nM NPDC1-mFc injected
Procedure: PILRA variant ligand binding Surface Plasmon Resonance (SPR) was performed as follows.
Next, the interaction of PILRA variants and ligands in vitro using surface plasmon resonance (SPR) was investigated.

[18] = target: T11, Mouse PILRA extracellular domain fused …; experiment: cell-based competitive ELISA: 293-PILRA stable cells, antibody titrated together with a fixed amount of mouse CD99-Fc, bound ligand-Fc detected with anti-human IgG-Fc-HRP
Procedure: After plates were centrifuged at 1200 rpm for 5 min at 4° C., the supernatant was decanted and the mixture of the serially diluted antibody and the ligand-Fc was added. Plates were incubated at 4° C. for 1 h with gentle shaking. Cells were washed with ice-cold 0.1% BSA in PBS, pH 7.4 (wash buffer) by centrifuging the plate at 1200 rpm for 5 min at 4° C. and the cells were resuspended in 200 μl wash buffer. […] Plates were incubated at 4° C. for 1 hr with gentle shaking. Cells were washed with ice-cold wash buffer 4 times. Cells were resuspended in 100 μl of the substrate 3,3′,5,5′-tetramethyl benzidine (Moss Inc., TMBE-1000) and plates were incubated at room temperature for approximately 20 min for color development. The reaction was stopped by adding 1 M phosphoric acid. The absorbance was read at 450 nm using a microplate reader (Multiskan Ascent, Thermo Scientific, Waltham, Mass.). The titration curves were plotted using KaleidaGraph (Synerg Software, Reading, Pa.).

T1 sequence (Q2YFS3 32-198 limits assumed): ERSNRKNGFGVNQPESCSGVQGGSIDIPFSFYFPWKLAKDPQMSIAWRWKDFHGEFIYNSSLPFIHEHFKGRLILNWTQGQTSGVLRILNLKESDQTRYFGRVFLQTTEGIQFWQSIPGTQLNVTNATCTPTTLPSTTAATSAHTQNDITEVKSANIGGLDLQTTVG
T11 sequence (P20963 other isoform, or with tags, fused parts or gaps limits assumed): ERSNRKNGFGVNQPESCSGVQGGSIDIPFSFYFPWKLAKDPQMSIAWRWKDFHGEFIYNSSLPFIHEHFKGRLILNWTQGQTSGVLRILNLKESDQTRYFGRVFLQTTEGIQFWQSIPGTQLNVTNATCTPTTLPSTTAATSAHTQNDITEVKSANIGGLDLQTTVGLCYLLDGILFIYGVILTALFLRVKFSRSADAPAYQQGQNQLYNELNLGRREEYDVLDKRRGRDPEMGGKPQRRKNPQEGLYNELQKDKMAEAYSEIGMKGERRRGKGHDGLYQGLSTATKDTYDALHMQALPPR
T10 sequence (Q2YFS3 32-198 limits assumed): as the sequence (Q2YFS3 32-198 limits assumed) above

B1: Anti-mouse PILRA antibody 12C6.9 (antibody, mouse IgG2a, kappa, V domains shown)
VH: QIQLVQSGPELKKPGETVKISCKASGYTFTTYGMSWMKQAPGKGLKWMGWINTYSGVPTYADDFKGRFAFSLETSASTAYLQISNLKDEDTARYFCARRDYGSSQWYFDVWSTGTTVTVSS
VL: DIVMTQSPKFMSISVGDRVSVTCKASQNVGTKVAWYQQKPGQSPKELIYSASYRFSGVPDRFTGSGSGTDFTLTISSVQSEDLAEYFCQQYNTYPLTFGAGTKLEIKR
With B1 the “IC50 (read off the curve)” value [1] was ~4 nM and the “IC50 (read off the curve)” value [2] was ~3 nM.

For B2, the Kd [3] was 76.5 nM and the kon [3] was 6800 M⁻¹ s⁻¹.

B3: PILRA G80 variant extracellular domain fused to murine IgG2a Fc (Fc fusion)
chain: QPSGSTGSGPSYLYGVTQPKHLSASMGGSVEIPFSFYYPWELATAPDVRISWRRGHFHGQGFYSTRPPSIHKDYVNRLFLNWTEGQKSGFLRISNLQKQDQSVYFCRVELDTRSSGRQQWQSIEGTKLSITQAVTTTTQRPSSMTTTWRLSSTTTTTGLRVTQGKRRSDSWHISLET
notes: also called PILRA-mFc G80; not shown: Fc region of murine IgG2a, C-terminal tag
In the case of B3, the Kd (NPDC1-His [4]) is reported as 30 nM, the kon (NPDC1-His [4]) is reported as 17000 M⁻¹ s⁻¹ and the binding result [5] is reported as “binds”. B3: binds [6].

In the case of B4, the “fold lower affinity than the G78 variant” value (NPDC1-His [7]) is reported as ~4.5 fold, the “fold lower kon than the G78 variant” value (NPDC1-His [7]) is reported as ~3 fold and the binding result [5] is reported as “binds”. B4: binds [6].

With B5 the “% of G78 binding” value [8] was 44 % of G78, the “% of G78 binding” value [9] was 22 % of G78 and the “% of G78 binding” value [10] was 117 % of G78. For the same binder, the “% of G78 variant binding” value [11] was ~20 % of G78 variant, the “% of G78 variant binding” value [12] was ~20 % of G78 variant and the “% of G78 variant binding” value [13] was ~35 % of G78 variant. For the same binder, the “% of G78 variant binding” value [14] was ~60 % of G78 variant and the binding result (Murine PILRA-His) was “binds”.

B6: Isotype control antibody 12D4 (antibody, mouse IgG2a, kappa, V domains shown)
VH: QVQLQQSGAELVTPGASVKLSCKTSGHTFTSYWMNWVNQKPGQGLEWIGWIYGGSGNTKYNQKFQGKATLTVDTSSSTAYMELRSLTSDDSAVYFCASGTNFFDYWGQGTMVTVSS
VL: DIVMTQSHKFMSTSVGDRVSITCKASQDVSTAVAWYQQKPGQSPKLLIYSASYRYTGVPDRFTGSGSGTDFTFTISSVQAEDLAVYYCQQHYSTPLTFGAGTKLELKR
B6: no binding (tested: 200 nM) [15]; no binding (tested: 200 nM) [16].

B7: Mouse PILRA ligand C12orf53 fused to human IgG1 Fc (Fc fusion)
chain: SSHRSPPAPARPPCVRGGPSAPRHVCVWERAPPPSRSPRVPRSRRQVVPGTAPPATPSGFEEGPPSSQYPWAIVWGPTVSREDGGDPNSVNPGFLPLDYGFAAPHGLATPHPNSDSMRDDGDGLILGETPATLRPFLFGGRGEGVDP
notes: also called C12orf53-Fc; mouse C12orf53-Fc; not shown: human IgG1 Fc
B7: binds (Murine PILRA-His).

B8: PILRA A140 variant (Q140A) extracellular domain fused to murine IgG2a Fc (Fc fusion)
chain: QPSGSTGSGPSYLYGVTQPKHLSASMGGSVEIPFSFYYPWELATAPDVRISWRRGHFHGQSFYSTRPPSIHKDYVNRLFLNWTEGQKSGFLRISNLQKQDQSVYFCRVELDTRSSGRQQWASIEGTKLSITQAVTTTTQRPSSMTTTWRLSSTTTTTGLRVTQGKRRSDSWHISLET
notes: also called PILRA-mFc A140; PILRA-Fc A140; not shown: Fc region of murine IgG2a, C-terminal tag
B8: binds [17].

B9: Anti-mouse PILRA antibody 12H1.8 (antibody, mouse IgG2a, kappa, V domains shown)
VH: QVQLQQSGAELVGPGTSVKISCQASGYTFTNYWIGWAKQRPGHGLEWIGDIYPGGGYTNYNKKFKGKATLTADKSSSTAYMQFSSLTSEDSAIYYCSRSRGHGSNFYWYFDVWGTGTTVTVSS
VL: DIVMTQSPKFMSTSVGDRVNITCRASQDVNTAVAWFQQKPGRSPKLLIYSASYRYTGPDHFTGSGSGTDFTFTISSVQAEDLAVYYCQQHYTTPLTFGAGTKLEIKR
For B9, the “IC50 (read off the curve)” value [18] was ~8 nM, the “IC50 (read off the curve)” value [1] was ~4 nM and the “IC50 (read off the curve)” value [2] was ~4 nM.
